How the values were obtained:
[1] = target: T1, human CD3 (E and δ chain heterodimer) fused with human Fc fragment (human, UniProt P07766 23-126; P04234 22-105); experiment: ELISA, plate coated with 2 µg/mL antigen-human Fc fusion, serially diluted IgG
T1 construct: ELISA coating antigen; the text prints 'E and 6 chain heterodimer', read as epsilon and delta
Description: 2 μg/mL of human HER2 or CD3 (E and 6 chain heterodimer) fused with human Fc fragment, were prepared and used to coat the ELISA plate at 2-8′C overnight. After washing and blocking, 50 μL serial diluted IgGs were added and incubated at 37′C for 1 hour. Plates were washed three times and then incubated with 50 μL/well TMB substrate at room temperature for about 20 minutes. Absorbance at 450 nm was measured after the reaction was stopped. The data was analyzed by GraphPad Prism 6 with nonlinear fitting.

[2] = target: HER2 on HER2-positive tumor cells (SKOV3) (UniProt P04626 23-1255); experiment: cell-based or functional assay
Human PDL1 (SPR analyte) = target: T2, Human PDL1 (SPR analyte) (human, UniProt Q9NZQ7 19-238, limits assumed); experiment: SPR (Biacore T200), antibody captured by anti-human IgG on CM5 chip, antigen injected as analyte, 1:1 Langmuir fit
T2 construct: also called PDL1H
Description: (§1) Biacore T200 (GE Healthcare) was used as a high performance system for real-time biomolecular interaction analysis, using surface plasmon resonance technology (“SPR”). During the measurement, anti-human IgG monoclonal antibody from the Human Antibody Capture Kit provided by Biacore was immobilized on CM5 chips, and IgG sample was injected onto sensor chip. Analytes were injected onto IgG captured flow cell for binding kinetic analysis in HBS-EP buffer.

[3] = target: T3, Human CD137 (SPR analyte) (human, UniProt Q07011 24-186, limits assumed); experiment: as above
T3 construct: also called CD137H
Description: as §1

[4] = target: T4, mouse CD137 expressed on cells (mouse, UniProt P20334 24-256); experiment: flow cytometry, antigen transiently expressed on yeast or HEK293F cells, IgG at 100 nM, Alexa Fluor 647 anti-human Fc detection (FIG. 13)
T4 construct: whole, on cells
T4 sequence (looked up): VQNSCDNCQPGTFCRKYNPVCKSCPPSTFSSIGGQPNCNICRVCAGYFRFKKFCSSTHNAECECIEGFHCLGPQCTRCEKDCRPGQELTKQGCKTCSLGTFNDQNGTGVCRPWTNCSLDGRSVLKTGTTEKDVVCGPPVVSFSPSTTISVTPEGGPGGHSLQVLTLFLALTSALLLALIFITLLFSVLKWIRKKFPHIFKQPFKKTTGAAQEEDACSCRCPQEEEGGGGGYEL
Description: (§2) The affinity of antibodies was also assessed against human, monkey and mouse CD137 or PDL1 that were transiently expressed on the surface of yeast or HEK293F cells. Briefly, yeast or HEK293F cells were transfected with a plasmid expressing human, monkey or mouse CD137 or PDL1. After 48 hours, the transfected cells were harvested and then washed. Cells were then incubated with IgGs (each at 100 nM) at 4° C. in the shaking bed for 1 hour shaking at 300 rpm, protected from light. For simultaneously binding, cell were incubated with biotinylated human CD137 or PDL1 protein fused with human Fc fragment, and SA-PE (streptavidin, phycoerythrin conjugated). For cross-reactivity, cells were incubated with Alexa Fluor 647 conjugated mouse anti-human Fc antibodies. The mixtures were incubated at 4° C. in the shaking bed for 30 minutes shaking at 300 rpm, protected from light. The cells were washed once prior to analysis by flow cytometry (Beckman CytoFlex).

[5] = target: T5, mouse PDL1 expressed on cells (mouse, UniProt Q9EP73 19-290); experiment: as above
T5 construct: whole, on cells
Description: as §2

[6] = target: T4, mouse CD137 expressed on cells; experiment: told in words; cross-reactivity by flow cytometry on antigen-expressing cells (FIG. 13)
Description: as §2

[7] = target: T5, mouse PDL1 expressed on cells; experiment: as above
Description: as §2

T5 sequence (Q9EP73 19-290): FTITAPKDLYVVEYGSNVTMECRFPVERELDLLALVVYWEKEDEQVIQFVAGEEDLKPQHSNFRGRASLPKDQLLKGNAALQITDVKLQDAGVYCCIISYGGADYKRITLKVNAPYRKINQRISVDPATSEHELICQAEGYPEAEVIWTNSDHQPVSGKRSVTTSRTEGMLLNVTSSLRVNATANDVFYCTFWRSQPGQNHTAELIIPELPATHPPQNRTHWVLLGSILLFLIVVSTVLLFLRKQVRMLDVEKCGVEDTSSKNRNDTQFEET
T1 sequence (P07766 23-126, stated change not applied, chain 1 of 2): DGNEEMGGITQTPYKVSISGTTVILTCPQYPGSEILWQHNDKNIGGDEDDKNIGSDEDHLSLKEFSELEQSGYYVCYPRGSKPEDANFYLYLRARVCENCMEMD
T1 sequence (P04234 22-105, stated change not applied, chain 2 of 2): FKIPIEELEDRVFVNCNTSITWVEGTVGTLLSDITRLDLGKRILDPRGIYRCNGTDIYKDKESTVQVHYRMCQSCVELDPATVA
T2 sequence (Q9NZQ7 19-238 limits assumed): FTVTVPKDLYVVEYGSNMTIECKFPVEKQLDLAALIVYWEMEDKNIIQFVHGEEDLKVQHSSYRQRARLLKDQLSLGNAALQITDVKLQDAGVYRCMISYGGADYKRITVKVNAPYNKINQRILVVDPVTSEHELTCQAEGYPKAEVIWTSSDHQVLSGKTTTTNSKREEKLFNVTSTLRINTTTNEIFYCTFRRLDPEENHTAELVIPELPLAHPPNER

B1: TY24052 (bispecific antibody)
heavy: not shown
chain: not shown
light: EVGSYPYDDPDCPSHDSDCDNSGRSAGGGGTPLGLAGSGGSQAVVTQEPSLTVSPGGTVTLTCGSSTGAVTTSNYANWVQQKPGQAPRGLIGGTNKRAPGVPARFSGSLLGGKAALTLSGAQPEDEAEYYCALWYSNLWVFGGGTKLTVLRGGGGSGGGGSGGGGSGGGGSEVQLVESGGGLVQPGGSLRLSCAASGFTFNTYAMNWVRQAPGKGLEWVGRIRSKYNNYATYYADSVKGRFTISRDDSKNTLYLQMNSLRAEDTAVYYCVRHGNFGNSYVSWFAYWGQGTLVTVSSEPKSSDKTHTCPPCPAPELLGGPSVFLFPPKPKDTLMISRTPEVTCVVVDVSHEDPEVKFNWYVDGVEVHNAKTKPREEQYASTYRVVSVLTVLHQDWLNGKEYKCKVSNKALPAPIEKTISKAKGQPREPQVYTDPPSRDELTKNQVSLTCLVDGFYPSDIAVEWESNGQPENCYKTTPPVLDSDGSFFLYSKLTVDKSRWQQGNVFSCSVMHEALHNHYTQDSLSLSPGK
notes: Masked, cleavable version of TY24051, uncleaved; IgG1 Fc with TYM13 mutations and N297A; also called SAFEbody
B1 was tested, and the binding result [1] was “binds” and the “EC50 of T-cell mediated killing of SKOV3 cells, fold increase compared with TY24051” value [2] was ~800 fold.

B2: TY22148 (bispecific antibody, human IgG1, kappa)
heavy: DIQLTQSPSSLSASVGDRVTITCRASQSIPSFLNWYQQKPGKAPKLLIYAASSLQSGVPSRFSGSGSGTDFTLTISSLQPEDFATYYCQHYISWPRQFTFGQGTKVEIKRTVAAPSVFIFPPSDEQLKSGTASVVCLLNNFYPREAKVQWKVDNALQSGNSQESVTEQDSKDSTYSLSSTLTLSKADYEKHKVYACEVTHQGLSSPVTKSFNRGEC
light: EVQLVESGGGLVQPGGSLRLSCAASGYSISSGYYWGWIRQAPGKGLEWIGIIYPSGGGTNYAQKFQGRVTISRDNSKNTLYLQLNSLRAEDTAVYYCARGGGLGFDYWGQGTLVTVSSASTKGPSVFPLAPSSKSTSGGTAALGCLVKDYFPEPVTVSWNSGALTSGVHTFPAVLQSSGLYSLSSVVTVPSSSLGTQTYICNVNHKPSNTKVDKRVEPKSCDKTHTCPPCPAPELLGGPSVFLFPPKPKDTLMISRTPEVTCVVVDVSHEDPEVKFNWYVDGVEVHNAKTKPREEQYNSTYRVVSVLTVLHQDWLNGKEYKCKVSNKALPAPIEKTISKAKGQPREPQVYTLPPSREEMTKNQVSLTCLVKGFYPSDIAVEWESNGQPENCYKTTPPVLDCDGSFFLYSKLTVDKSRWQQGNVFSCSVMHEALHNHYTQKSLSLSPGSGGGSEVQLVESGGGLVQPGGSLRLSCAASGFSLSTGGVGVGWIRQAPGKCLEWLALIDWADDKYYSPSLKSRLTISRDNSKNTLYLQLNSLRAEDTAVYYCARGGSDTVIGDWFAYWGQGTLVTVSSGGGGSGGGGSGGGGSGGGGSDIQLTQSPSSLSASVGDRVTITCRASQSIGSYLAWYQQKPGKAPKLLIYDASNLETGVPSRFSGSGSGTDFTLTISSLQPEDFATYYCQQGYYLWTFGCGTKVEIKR
notes: Morrison format: anti-PDL1 Fab, anti-CD137 scFv; IgG1 with N390C:S400'C; also called PDL1 × CD137 bispecific antibody, format TYF02
With B2 the Kd (Human PDL1 (SPR analyte)) was 7.7 nM, the Kd [3] was 6.7 nM and the binding result [4] was “binds”. B2: binds [5].

B3: anti-CD137 Fv (antibody, V domains shown)
VH: EVQLVESGGGLVQPGGSLRLSCAASGFSLSTGGVGVGWIRQAPGKGLEWLALIDWADDKYYSPSLKSRLTISRDNSKNTLYLQLNSLRAEDTAVYYCARGGSDTVIGDWFAYWGQGTLVTVSS
VL: DIQLTQSPSSLSASVGDRVTITCRASQSIGSYLAWYQQKPGKAPKLLIYDASNLETGVPSRFSGSGSGTDFTLTISSLQPEDFATYYCQQGYYLWTFGQGTKVEIKR
notes: Named only as the anti-CD137 Fv used in the bispecific and parental antibodies; also called CD137 VH / CD137 VL
B3: binds [6].

B4: anti-PDL1 Fv (antibody, V domains shown)
VH: EVQLVESGGGLVQPGGSLRLSCAASGYSISSGYYWGWIRQAPGKGLEWIGIIYPSGGGTNYAQKFQGRVTISRDNSKNTLYLQLNSLRAEDTAVYYCARGGGLGFDYWGQGTLVTVSS
VL: DIQLTQSPSSLSASVGDRVTITCRASQSIPSFLNWYQQKPGKAPKLLIYAASSLQSGVPSRFSGSGSGTDFTLTISSLQPEDFATYYCQHYISWPRQFTFGQGTKVEIKR
notes: Named only as the anti-PDL1 Fv used in the bispecific and parental antibodies; also called PDL1 VH / PDL1 VL
B4: binds [7].

B5: TY24051 (bispecific antibody)
heavy: not shown
chain: not shown
light: QAVVTQEPSLTVSPGGTVTLTCGSSTGAVTTSNYANWVQQKPGQAPRGLIGGTNKRAPGVPARFSGSLLGGKAALTLSGAQPEDEAEYYCALWYSNLWVFGGGTKLTVLRGGGGSGGGGSGGGGSGGGGSEVQLVESGGGLVQPGGSLRLSCAASGFTFNTYAMNWVRQAPGKGLEWVGRIRSKYNNYATYYADSVKGRFTISRDDSKNTLYLQMNSLRAEDTAVYYCVRHGNFGNSYVSWFAYWGQGTLVTVSSEPKSSDKTHTCPPCPAPELLGGPSVFLFPPKPKDTLMISRTPEVTCVVVDVSHEDPEVKFNWYVDGVEVHNAKTKPREEQYASTYRVVSVLTVLHQDWLNGKEYKCKVSNKALPAPIEKTISKAKGQPREPQVYTDPPSRDELTKNQVSLTCLVDGFYPSDIAVEWESNGQPENCYKTTPPVLDSDGSFFLYSKLTVDKSRWQQGNVFSCSVMHEALHNHYTQDSLSLSPGK
notes: Anti-HER2 Fab arm and anti-CD3 scFv arm, IgG1 Fc with TYM13 mutations and N297A; also called HER2×CD3 bispecific T-cell-engaging antibody; parental bispecific Fab X scFv in IgG1
B5: binds [1].

Reference: patent publication US20230124669A1 (ADAGENE, published 2023)
